{"source": "paper PMC9482650", "about": "“Quantitative fragmentomics allow affinity mapping of interactomes” (Nature Communications, 2022)", "key": {"HaCat cell extract preys": {"system": "HaCat cell extract preys", "assay": "PDZ-AP-MS, biotinylated MBP-PDZ baits", "assay_type": "binding, human", "conditions": "for Difference log2: enrichment of prey", "method": "(§1) For PDZ-AP-MS experiments, PDZ domains were cloned as His6-AviTag-MBP-PDZ constructs. For co-expression with BirA, E. coli BL21(DE3) cells were co-transformed with His6-AviTag-MBP, or His6-AviTag-MBP-PDZ-coding and PET21a-BirA (Addgene #20857) plasmids. Simultaneously to IPTG induction, 50 µM biotin was added to the media. After cell harvesting, the lysis buffer was also supplemented with 50 µM biotin. Otherwise, expression and double affinity purification was identical as previously described in details.\n(§2) For PBM-AP-MS experiments, 30 μl streptavidin resin was mixed with biotin or peptide at 50–60 μM concentration in 6–6.5 resin volume for 60 min to achieve resin saturation. For PDZ-AP-MS experiments, 30 μl streptavidin resin was mixed with biotinylated MBP or MBP-PDZ at 40-50 μM concentration in >1000× resin volume for 60 min to achieve resin saturation. After saturation, resins were washed a single time (ten resin volume, holdup buffer), and were depleted with biotin (1 mM biotin, 5–10 resin volume, 10 min). Finally, resins were washed two times. 0.5 ml 2 mg/ml cell lysate was added to the dry resin (1 mg total input) and were incubated at 4 °C for 2 h. Then, the beads were washed three times with 10 resin volume buffer containing: 50 mM TRIS pH 8.5, 150 mM NaCl, 1% TritonX-100, 10× complete EDTA-free protease inhibitor cocktail, 2 mM EDTA, 1 mM TCEP. Then, the beads were washed two times with ten resin volume buffer containing: 50 mM TRIS pH 8.5, 150 mM NaCl, 1 mM TCEP. Finally, captured protein was eluted from the resin in two steps and the eluted fractions were pooled. For each elution the beads were incubated for 30 min with three resin volume buffer containing: 20 mM TRIS pH8.5, 100 mM NaCl, 500 μM TCEP, 8 M Urea. Between each step, the beads were separated by mild centrifugation and the supernatant was removed by gentle pipetting.\n(§3) The samples were precipitated with TCA 20% overnight at 4 °C and centrifuged at 14,000 rpm for 10 min at 4 °C. The protein pellets were washed twice with 1 mL cold acetone and air dried. The protein extracts were solubilized in urea 8 M, reduced with 5 mM TCEP for 30 min, and alkylated with 10 mM iodoacetamide for 30 min in the dark. Double digestion was performed at 37 °C with 500 ng endoproteinase Lys-C for 4 h, followed by fourfold dilution and an overnight digestion with 500 ng trypsin. Peptide mixtures were then desalted on C18 spin-column and dried on Speed-Vacuum.\n(§4) Samples were analyzed using an Ultimate 3000 nano-RSLC (Thermo Scientific, San Jose California) coupled in line with a LTQ-Orbitrap ELITE mass spectrometer via a nano-electrospray ionization source (Thermo Scientific, San Jose California). Peptide mixtures were injected in 0.1% TFA on a C18 Acclaim PepMap100 trap-column (75 µm ID × 2 cm, 3 µm, 100 Å, Thermo Fisher Scientific) for 3 min at 5 µL/min with 2% ACN, 0.1% FA in H2O and then separated on a C18 Accucore nano-column (75 µm ID × 50 cm, 2.6 µm, 150 Å, Thermo Fisher Scientific) at 220 nl/min and 38 °C with a 90 min linear gradient from 5% to 30% buffer B (A: 0.1% FA in H2O/B: 99% ACN, 0.1% FA in H2O), regeneration at 5% B. The mass spectrometer was operated in positive ionization mode, in data-dependent mode with survey scans from m/z 350–1500 acquired in the Orbitrap at a resolution of 120,000 at m/z 400. The 20 most intense peaks from survey scans were selected for further fragmentation in the Linear Ion Trap with an isolation window of 2.0 Da and were fragmented by CID with normalized collision energy of 35%. (TOP20CID method) Unassigned and single charged states were excluded from fragmentation. The Ion Target Value for the survey scans (in the Orbitrap) and the MS2 mode (in the Linear Ion Trap) were set to 1E6 and 5E3 respectively and the maximum injection time was set to 100 ms for both scan modes. Dynamic exclusion was set to 20 s after one repeat count with mass width at ±10 ppm. […]"}, "HEK293T cells": {"system": "HEK293T cells", "assay": "Label-free MS proteome of stable cell lines expressing HPV16 E6 or E6ΔPBM", "assay_type": "cell-based, human", "conditions": "protein level", "method": "HEK293T and HeLa cells were authenticated and found 100% identity to ATCC cat. CRL-3216 and ATCC cat. CCL-2, respectively. Jurkat and HaCat cell lines were not authenticated (original source: ECACC and Deutsches Krebsforschungszentrum DKFZ, respectively). HeLa cells were grown in DMEM (1 g/L glucose, Gibco) medium completed with 5% FCS and 40 μg/mL gentamicin, diluted every 3rd/4th day 1/10. HaCat cells were grown in DMEM (1 g/L glucose, Gibco) medium completed with 10% FCS and 40 μg/mL gentamicin, diluted every 3rd/4th day 1/4. Jurkat cells were grown in RPMI (Gibco) medium completed with 10% FCS and 40 μg/mL gentamicin, diluted every 3rd/4th day 1/12. All cells were kept at 37 °C and 5% CO2. For proteomics analyses cells were seeded on T-175 flasks. After they reached confluency, adherent cells were washed with PBS once and collected by scraping with ice-cold lysis buffer (Hepes-KOH pH 7.5 50 mM, NaCl 150 mM, Triton X-100 1%, complete EDTA-free protease inhibitor cocktail 1×, EDTA 2 mM, TCEP 5 mM, glycerol 10%). Jurkat cells were collected by 1000 g × centrifugation, washed once with PBS, then collected by 1000 g × 5 min centrifugation again and lysed in ice-cold lysis buffer. Lysates were sonicated 4 × 20 s with 1 s long pulses on ice, then incubated rotating at 4 °C for 30 min. Lysates were centrifuged at 12,000 rpm 4 °C for 20 min and supernatant was kept for further analysis. Concentration determination was carried out by standard Bradford method (Bio-Rad Protein Assay Dye Reagent #5000006) using BSA (MP BIomedicals #160069) as control on a Bio-Rad SmartSpec 3000 spectrophotometer instrument.\nas §3\nSamples were analyzed using an Ultimate 3000 nano-RSLC (Thermo Scientific, San Jose California) coupled in line with a LTQ-Orbitrap ELITE mass spectrometer via a nano-electrospray ionization source (Thermo Scientific, San Jose California). Peptide mixtures were injected in 0.1% TFA on a C18 Acclaim PepMap100 trap-column (75 µm ID × 2 cm, 3 µm, 100 Å, Thermo Fisher Scientific) for 3 min at 5 µL/min with 2% ACN, 0.1% FA in H2O and then separated on a C18 Accucore nano-column (75 µm ID × 50 cm, 2.6 µm, 150 Å, Thermo Fisher Scientific) at 220 nl/min and 38 °C with a 90 min linear gradient from 5% to 30% buffer B (A: 0.1% FA in H2O/B: 99% ACN, 0.1% FA in H2O), regeneration at 5% B. The mass spectrometer was operated in positive ionization mode, in data-dependent mode with survey scans from m/z 350–1500 acquired in the Orbitrap at a resolution of 120,000 at m/z 400. The 20 most intense peaks from survey scans were selected for further fragmentation in the Linear Ion Trap with an isolation window of 2.0 Da and were fragmented by CID with normalized collision energy of 35%. (TOP20CID method) Unassigned and single charged states were excluded from fragmentation. The Ion Target Value for the survey scans (in the Orbitrap) and the MS2 mode (in the Linear Ion Trap) were set to 1E6 and 5E3 respectively and the maximum injection time was set to 100 ms for both scan modes. Dynamic exclusion was set to 20 s after one repeat count with mass width at ±10 ppm.\nProteins were identified by database searching using SequestHT (Thermo Fisher Scientific) with Proteome Discoverer 2.4 software (PD2.4, Thermo Fisher Scientific) on human FASTA database downloaded from SwissProt (reviewed, release 2020_11_27, 20304 entries, https://www.uniprot.org/). […]"}, "HeLa cell extract preys": {"system": "HeLa cell extract preys", "assay": "PDZ-AP-MS, biotinylated MBP-PDZ baits", "assay_type": "binding, human", "conditions": "for Ratio: fold enrichment of prey; for Difference: log2 enrichment of prey", "method": "as §1, §2, §3, §4"}}, "data": [{"molecule": "BAIAP2L1 (protein, UniProt Q9UHR4 1-511, looked up) BAR/IMD domain-containing …: MSRGPEEVNRLTESTYRNVMEQFNPGLRNLINLGKNYEKAVNAMILAGKAYYDGVAKIGEIATGSPVSTELGHVLIEISSTHKKLNESLDENFKKFHKEIIHELEKKIELDVKYMNATLKRYQTEHKNKLESLEKSQAELKKIRRKSQGSRNALKYEHKEIEYVETVTSRQSEIQKFIADGCKEALLEEKRRFCFLVDKHCGFANHIHYYHLQSAELLNSKLPRWQETCVDAIKVPEKIMNMIEEIKTPASTPVSGTPQASPMIERSNVVRKDYDTLSKCSPKMPPAPSGRAYTSPLIDMFNNPATAAPNSQRVNNSTGTSEDPSLQRSVSVATGLNMMKKQKVKTIFPHTAGSNKTLLSFAQGDVITLLIPEEKDGWLYGEHDVSKARGWFPSSYTKLLEENETEAVTVPTPSPTPVRSISTVNLSENSSVVIPPPDYLECLSMGAAADRRADSARTTSTFKAPASKPETAAPNDANGTAKPPFLSGENPFATVKLRPTVTNDRSAPIIR", "values": [{"measurement": "Difference log2", "setting": "HaCat cell extract preys; bait SCRIB_2 PDZ vs MBP", "result": 3.855}, {"measurement": "Ratio SCRIB_2/MBP", "setting": "HaCat cell extract preys; bait SCRIB_2 PDZ, fold change of prey", "result": 14.4736}]}, {"molecule": "PGP (protein, UniProt A6NDG6 1-321, looked up) Glycerol-3-phosphate …: MAAAEAGGDDARCVRLSAERAQALLADVDTLLFDCDGVLWRGETAVPGAPEALRALRARGKRLGFITNNSSKTRAAYAEKLRRLGFGGPAGPGASLEVFGTAYCTALYLRQRLAGAPAPKAYVLGSPALAAELEAVGVASVGVGPEPLQGEGPGDWLHAPLEPDVRAVVVGFDPHFSYMKLTKALRYLQQPGCLLVGTNMDNRLPLENGRFIAGTGCLVRAVEMAAQRQADIIGKPSRFIFDCVSQEYGINPERTVMVGDRLDTDILLGATCGLKTILTLTGVSTLGDVKNNQESDCVSKKKMVPDFYVDSIADLLPALQG", "values": [{"measurement": "Difference log2 E6/Ctrl", "setting": "HEK293T cells; E6 cell line vs control", "result": 0.3606}, {"measurement": "Ratio E6/Ctrl", "setting": "HEK293T cells; E6 cell line vs control", "result": 1.284}, {"measurement": "Difference log2 dPBM/E6", "setting": "HEK293T cells; dPBM cell line vs E6 cell line", "result": 0.0821}, {"measurement": "Ratio dPBM/E6", "setting": "HEK293T cells; dPBM cell line vs E6 cell line", "result": 1.059}, {"measurement": "Difference log2 dPBM/Ctrl", "setting": "HEK293T cells; dPBM cell line vs control", "result": 0.4427}, {"measurement": "Ratio dPBM/Ctrl", "setting": "HEK293T cells; dPBM cell line vs control", "result": 1.359}]}, {"molecule": "CDH1 (protein, UniProt P12830 155-882, looked up) Cadherin-1: DWVIPPISCPENEKGPFPKNLVQIKSNKDKEGKVFYSITGQGADTPPVGVFIIERETGWLKVTEPLDRERIATYTLFSHAVSSNGNAVEDPMEILITVTDQNDNKPEFTQEVFKGSVMEGALPGTSVMEVTATDADDDVNTYNAAIAYTILSQDPELPDKNMFTINRNTGVISVVTTGLDRESFPTYTLVVQAADLQGEGLSTTATAVITVTDTNDNPPIFNPTTYKGQVPENEANVVITTLKVTDADAPNTPAWEAVYTILNDDGGQFVVTTNPVNNDGILKTAKGLDFEAKQQYILHVAVTNVVPFEVSLTTSTATVTVDVLDVNEAPIFVPPEKRVEVSEDFGVGQEITSYTAQEPDTFMEQKITYRIWRDTANWLEINPDTGAISTRAELDREDFEHVKNSTYTALIIATDNGSPVATGTGTLLLILSDVNDNAPIPEPRTIFFCERNPKPQVINIIDADLPPNTSPFTAELTHGASANWTIQYNDPTQESIILKPKMALEVGDYKINLKLMDNQNKDQVTTLEVSVCDCEGAAGVCRKAQPVEAGLQIPAILGILGGILALLILILLLLLFLRRRAVVKEPLLPPEDDTRDNVYYYDEEGGGEEDQDFDLSQLHRGLDARPEVTRNDVAPTLMSVPRYLPRPANPDEIGNFIDENLKAADTDPTAPPYDSLLVFDYEGSGSEAASLSSLNSSESDKDQDYDYLNEWGNRFKKLADMYGGGEDD", "values": [{"measurement": "Difference log2", "setting": "HaCat cell extract preys; bait TX1BP3 PDZ vs MBP", "result": 8.222}, {"measurement": "Ratio TX1BP3/MBP", "setting": "HaCat cell extract preys; bait TX1BP3 PDZ, fold change of prey", "result": 298.682}]}, {"molecule": "NONO (protein, UniProt Q15233 1-471, looked up) Non-POU domain-containing …: MQSNKTFNLEKQNHTPRKHHQHHHQQQHHQQQQQQPPPPPIPANGQQASSQNEGLTIDLKNFRKPGEKTFTQRSRLFVGNLPPDITEEEMRKLFEKYGKAGEVFIHKDKGFGFIRLETRTLAEIAKVELDNMPLRGKQLRVRFACHSASLTVRNLPQYVSNELLEEAFSVFGQVERAVVIVDDRGRPSGKGIVEFSGKPAARKALDRCSEGSFLLTTFPRPVTVEPMDQLDDEEGLPEKLVIKNQQFHKEREQPPRFAQPGSFEYEYAMRWKALIEMEKQQQDQVDRNIKEAREKLEMEMEAARHEHQVMLMRQDLMRRQEELRRMEELHNQEVQKRKQLELRQEEERRRREEEMRRQQEEMMRRQQEGFKGTFPDAREQEIRMGQMAMGGAMGINNRGAMPPAPVPAGTPAPPGPATMMPDGTLGLTPPTTERFGQAATMEGIGAIGGTPPAFNRAAPGAEFAPNKRRRY", "values": [{"measurement": "Ratio", "setting": "HeLa cell extract preys; bait DLG1_1 PDZ vs MBP control", "result": 31.101}, {"measurement": "Difference", "setting": "HeLa cell extract preys; bait DLG1_1 PDZ vs MBP control", "result": 4.959}, {"measurement": "Difference", "setting": "HeLa cell extract preys; bait SCRIB_2 PDZ (biotinylated MBP-PDZ) vs MBP control", "result": 4.7577}, {"measurement": "Ratio", "setting": "HeLa cell extract preys; bait SCRIB_2 PDZ vs MBP control", "result": 27.0527}]}]}
